Tests used:
Experiment in all cases: holdup assay
Design in all cases: key: below the threshold = too weak to quantify, mostly under pKd 3.1 to 4
DFNB31_3, Q9P202 = target: T1, DFNB31_3, Q9P202
T1 sequence (Q9P202 811-907, limits assumed, looked up): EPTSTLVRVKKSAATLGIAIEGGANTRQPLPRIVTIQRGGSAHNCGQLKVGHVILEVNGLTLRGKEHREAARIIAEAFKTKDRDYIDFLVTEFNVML

MAGI2_3, Q86UL8 = target: MAGI2_3, Q86UL8
SCRIB_3, Q14160 = target: SCRIB_3, Q14160
NHERF2_2, Q15599 = target: NHERF2_2, Q15599
FRMPD3, Q5JV73 = target: FRMPD3, Q5JV73
GRIP1_7, Q9Y3R0 = target: T2, GRIP1_7, Q9Y3R0
T2 sequence (Q9Y3R0 999-1096, limits assumed, looked up): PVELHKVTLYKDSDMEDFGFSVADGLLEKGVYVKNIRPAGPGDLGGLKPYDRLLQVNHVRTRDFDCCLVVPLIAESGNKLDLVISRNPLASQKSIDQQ

DLG1_1, Q12959 = target: DLG1_1, Q12959
DLG4_3, P78352 = target: DLG4_3, P78352
GRID2IP_2, A4D2P6 = target: GRID2IP_2, A4D2P6
LNX2_3, Q8N448 = target: T3, LNX2_3, Q8N448
T3 sequence (Q8N448 463-564, limits assumed, looked up): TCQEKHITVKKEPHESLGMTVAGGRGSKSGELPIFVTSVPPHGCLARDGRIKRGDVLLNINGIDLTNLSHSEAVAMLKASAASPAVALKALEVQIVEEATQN

DFNB31_1, Q9P202 = target: T4, DFNB31_1, Q9P202
T4 sequence (Q9P202 135-233, limits assumed, looked up): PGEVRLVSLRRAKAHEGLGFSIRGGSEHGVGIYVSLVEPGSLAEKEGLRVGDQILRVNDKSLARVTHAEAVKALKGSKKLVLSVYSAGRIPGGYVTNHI

Inadl_6, Q8NI35 = target: Inadl_6, Q8NI35
DLG3_3, Q92796 = target: T5, DLG3_3, Q92796
T5 sequence (Q92796 374-475, limits assumed, looked up): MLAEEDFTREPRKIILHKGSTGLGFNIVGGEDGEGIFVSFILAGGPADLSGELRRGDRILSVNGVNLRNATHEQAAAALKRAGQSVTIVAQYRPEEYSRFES

DLG1_2, Q12959 = target: DLG1_2, Q12959
CARD11, Q9BXL7 = target: T6, CARD11, Q9BXL7
T6 sequence (Q9BXL7 662-765, limits assumed, looked up): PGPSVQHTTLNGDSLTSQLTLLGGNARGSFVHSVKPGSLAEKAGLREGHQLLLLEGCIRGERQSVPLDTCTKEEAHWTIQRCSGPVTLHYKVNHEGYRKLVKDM

PCLO, Q9Y6V0 = target: T7, PCLO, Q9Y6V0
T7 sequence (Q9Y6V0 4491-4600, limits assumed, looked up): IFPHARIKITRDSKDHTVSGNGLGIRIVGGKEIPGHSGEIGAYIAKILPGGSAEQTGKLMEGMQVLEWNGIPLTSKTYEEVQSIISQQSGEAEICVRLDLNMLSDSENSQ

TJP2_1, Q9UDY2 = target: TJP2_1, Q9UDY2
DVL3, Q92997 = target: T8, DVL3, Q92997
T8 sequence (Q92997 244-331, limits assumed, looked up): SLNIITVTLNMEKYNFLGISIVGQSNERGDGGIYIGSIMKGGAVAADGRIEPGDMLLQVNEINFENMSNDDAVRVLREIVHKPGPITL

CASK, O14936 = target: CASK, O14936
TIAM2, Q8IVF5 = target: T9, TIAM2, Q8IVF5
T9 sequence (Q8IVF5 885-986, limits assumed, looked up): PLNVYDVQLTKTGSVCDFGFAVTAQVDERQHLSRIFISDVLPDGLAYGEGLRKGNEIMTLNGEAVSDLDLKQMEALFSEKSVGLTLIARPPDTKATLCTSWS

MAGI1_2, Q96QZ7 = target: MAGI1_2, Q96QZ7
RHPN1, Q8TCX5 = target: T10, RHPN1, Q8TCX5
T10 sequence (Q8TCX5 508-602, limits assumed, looked up): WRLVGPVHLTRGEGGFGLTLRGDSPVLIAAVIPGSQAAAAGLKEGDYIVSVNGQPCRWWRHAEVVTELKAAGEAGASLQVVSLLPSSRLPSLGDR

MAGI2_5, Q86UL8 = target: MAGI2_5, Q86UL8
GRIP1_3, Q9Y3R0 = target: T11, GRIP1_3, Q9Y3R0
T11 sequence (Q9Y3R0 247-346, limits assumed, looked up): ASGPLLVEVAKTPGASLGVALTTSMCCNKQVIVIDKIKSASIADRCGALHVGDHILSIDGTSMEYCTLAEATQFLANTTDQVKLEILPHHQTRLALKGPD

MAST1, Q9Y2H9 = target: MAST1, Q9Y2H9
Inadl_10, Q8NI35 = target: Inadl_10, Q8NI35
PTPN3, P26045 = target: PTPN3, P26045
[1] = plain residues with an end cap or a label only (N-terminal biotin on a linker: gsgsgs; C-terminal amide)
[2] = plain residues with an end cap or a label only (N-terminal biotin on a linker: ttds)

Measured: pKd

Sequence of MAST1, Q9Y2H9 (Q9Y2H9 962-1065): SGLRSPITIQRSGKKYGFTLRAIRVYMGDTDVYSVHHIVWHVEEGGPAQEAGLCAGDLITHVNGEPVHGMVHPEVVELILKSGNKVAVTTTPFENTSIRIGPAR
Sequence of FRMPD3, Q5JV73 (Q5JV73 12-100): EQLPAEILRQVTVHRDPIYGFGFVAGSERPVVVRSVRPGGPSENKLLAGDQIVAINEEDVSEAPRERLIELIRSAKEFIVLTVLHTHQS
Sequence of TJP2_1, Q9UDY2 (Q9UDY2 24-128): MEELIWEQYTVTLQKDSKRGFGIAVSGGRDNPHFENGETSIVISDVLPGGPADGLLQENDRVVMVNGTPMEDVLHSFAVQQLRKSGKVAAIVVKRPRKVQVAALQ
Sequence of DLG4_3, P78352 (P78352 306-403): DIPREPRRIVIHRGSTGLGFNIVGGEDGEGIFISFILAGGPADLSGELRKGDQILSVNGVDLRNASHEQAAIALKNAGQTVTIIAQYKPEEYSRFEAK
Sequence of SCRIB_3, Q14160 (Q14160 999-1103): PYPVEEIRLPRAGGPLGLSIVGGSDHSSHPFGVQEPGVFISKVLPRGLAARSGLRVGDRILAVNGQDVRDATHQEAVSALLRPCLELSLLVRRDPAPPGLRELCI
Sequence of PTPN3, P26045 (P26045 505-587): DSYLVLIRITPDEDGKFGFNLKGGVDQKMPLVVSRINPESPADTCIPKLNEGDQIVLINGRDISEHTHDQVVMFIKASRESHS
Sequence of MAGI1_2, Q96QZ7 (Q96QZ7 456-580): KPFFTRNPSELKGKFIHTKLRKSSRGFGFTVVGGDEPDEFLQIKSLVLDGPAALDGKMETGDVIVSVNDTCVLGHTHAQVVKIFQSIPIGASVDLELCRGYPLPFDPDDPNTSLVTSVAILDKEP
Sequence of CASK, O14936 (O14936 487-570): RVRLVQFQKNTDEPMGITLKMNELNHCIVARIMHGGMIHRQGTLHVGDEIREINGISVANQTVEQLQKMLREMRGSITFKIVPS
Sequence of MAGI2_3, Q86UL8 (Q86UL8 600-682): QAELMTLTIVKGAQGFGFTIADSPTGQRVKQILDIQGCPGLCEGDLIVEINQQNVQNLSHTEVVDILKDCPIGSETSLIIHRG
Sequence of Inadl_6, Q8NI35 (Q8NI35 1058-1167): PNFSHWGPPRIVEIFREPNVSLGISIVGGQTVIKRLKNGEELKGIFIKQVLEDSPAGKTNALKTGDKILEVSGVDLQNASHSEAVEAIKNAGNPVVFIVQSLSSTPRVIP
Sequence of MAGI2_5, Q86UL8 (Q86UL8 915-1017): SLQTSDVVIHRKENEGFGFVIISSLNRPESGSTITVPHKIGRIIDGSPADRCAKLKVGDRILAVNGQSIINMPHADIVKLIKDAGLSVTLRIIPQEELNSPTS
Sequence of GRID2IP_2, A4D2P6 (A4D2P6 272-370): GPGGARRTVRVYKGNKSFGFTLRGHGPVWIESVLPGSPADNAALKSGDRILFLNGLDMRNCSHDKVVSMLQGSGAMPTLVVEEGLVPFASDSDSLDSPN
Sequence of NHERF2_2, Q15599 (Q15599 142-238): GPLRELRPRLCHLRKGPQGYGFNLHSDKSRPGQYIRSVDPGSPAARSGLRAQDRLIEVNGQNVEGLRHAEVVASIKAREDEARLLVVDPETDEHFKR
Sequence of Inadl_10, Q8NI35 (Q8NI35 1673-1763): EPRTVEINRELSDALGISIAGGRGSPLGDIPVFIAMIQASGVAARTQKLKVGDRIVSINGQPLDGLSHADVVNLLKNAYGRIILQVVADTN

B1: MLLT4_int, P55196 (peptide)
chain: YGIVQETTFDLGGDIH
3.88: PTPN3, P26045; [1]
4.61: SCRIB_3, Q14160; [1]
below the threshold: MAGI2_3, Q86UL8; [1] | NHERF2_2, Q15599; [1] | FRMPD3, Q5JV73; [1] | GRIP1_7, Q9Y3R0; [1] | DLG1_1, Q12959; [1] | DLG4_3, P78352; [1] | GRID2IP_2, A4D2P6; [1] | LNX2_3, Q8N448; [1] | DFNB31_1, Q9P202; [1] | Inadl_6, Q8NI35; [1] | DLG3_3, Q92796; [1] | CARD11, Q9BXL7; [1] | PCLO, Q9Y6V0; [1] | TJP2_1, Q9UDY2; [1] | DVL3, Q92997; [1] | CASK, O14936; [1] | MAGI1_2, Q96QZ7; [1] | RHPN1, Q8TCX5; [1] | MAGI2_5, Q86UL8; [1] | GRIP1_3, Q9Y3R0; [1] | MAST1, Q9Y2H9; [1] | Inadl_10, Q8NI35; [1]
4.06: DLG1_2, Q12959; [1]
3.98: TIAM2, Q8IVF5; [1]
3.83: DFNB31_3, Q9P202; [1]

B2: DOCK4, Q8N1I0 (peptide)
chain: RPLPRKVSQL
below the threshold: DFNB31_3, Q9P202; [2] | MAGI2_3, Q86UL8; [2] | NHERF2_2, Q15599; [2] | FRMPD3, Q5JV73; [2] | GRIP1_7, Q9Y3R0; [2] | DLG1_1, Q12959; [2] | LNX2_3, Q8N448; [2] | DFNB31_1, Q9P202; [2] | Inadl_6, Q8NI35; [2] | DLG3_3, Q92796; [2] | CARD11, Q9BXL7; [2] | PCLO, Q9Y6V0; [2] | TJP2_1, Q9UDY2; [2] | DVL3, Q92997; [2] | CASK, O14936; [2] | TIAM2, Q8IVF5; [2] | RHPN1, Q8TCX5; [2] | MAGI2_5, Q86UL8; [2] | GRIP1_3, Q9Y3R0; [2] | Inadl_10, Q8NI35; [2]
4.73: PTPN3, P26045; [2]
3.86: MAST1, Q9Y2H9; [2]
4.19: GRID2IP_2, A4D2P6; [2]
4.51: MAGI1_2, Q96QZ7; [2]
3.94: DLG1_2, Q12959; [2]
4.72: SCRIB_3, Q14160; [2]
3.69: DLG4_3, P78352; [2]

From paper PMC9482650, “Quantitative fragmentomics allow affinity mapping of interactomes” (Nature Communications, 2022)
